This is an account of results in paper PMC12216891 (Scientific Reports, 2025).

The data set concerns the molecule itself. Nature of the data set: cryo-EM structure.

B1: Thermochromatium tepidum form-IAq RuBisCO large subunit (RbcL) (natural protein, UniProt A0A6I6DX30 1-472, looked up)
chain: MAKTYSAGVKEYRETYWMPNYTPKDTDILACFKITPQPGVPREEAAAAVAAESSTGTWTTVWTDLLTDLDYYKGRAYAIEDVPGDDTCFYAFIAYPIDLFEEGSVVNVFTSLVGNVFGFKAVRALRLEDVRFPIAYVMTCNGPPHGIQVERDILNKYGRPLLGCTIKPKLGLSAKNYGRAVYECLRGGLDFTKDDENVNSQPFMRWRQRFDFVMEAIDKAERETGERKGHYLNVTAPTPEEMYKRAEYAKEIGAPIIMHDYITGGFCANTGLAQWCRNNGVLLHIHRAMHAVLDRNPHHGIHFRVLTKILRLSGGDHLHTGTVVGKLEGDRQATLGWIDLLRESYVKEDRSRGIFFDQDWGAMPGAFAVASGGIHVWHMPALVTIFGDDSVLQFGGGTLGHPWGNAAGACANRVALEACIEARNQGIPIEKEGKEVLTKAAAHSPELKIAMETWKEIKFEFDSVDKLDVAHK
On to B1, for which the “stoichiometry N” value was 8.

One may read the stoichiometry N as the number of molecules, sites or subunits per partner or assembly.
